From patent US20240262869A1 come the findings set out here.

The target of assay [1] is neutralizing antibody CR3022.
Assay [2] deals with neutralizing antibody CR3022. This is another data set of the same source.
The target in assay [3] is ACE2-hFc (human) (UniProt Q9BYF1).
The target is the same in assay [4]. The source holds these as a separate data set.
Assay [5] concerns the target neutralizing antibody CR3022. The assay can be described thus: SPR (ProteOn XPR36), CR3022 captured on Protein G.
For assay [6], the target named is neutralizing antibody CR3022. The source holds these as a separate data set.
Assay [7] concerns the target ACE2-hFc (human) (UniProt Q9BYF1). The source holds these as a separate data set.
Assay [8] has the same target. This is another data set of the same source.
The target in assay [9] is neutralizing antibody CR3022. The assay can be described thus: SPR, immobilized CR3022. In general terms: In SPR one partner is held on a chip, and binding of the other changes the refractive index at the surface.
The target of assay [10] is neutralizing antibody CR3022. The source holds these as a separate data set.
In assay [11] the target is neutralizing antibody CR3022. As to the kind of experiment: SPR, CR3022 captured on Protein G, tagless pInCV02R as analyte (FIG. 11D).

Several values for one entry are separate records, joined by “and”; a condition that tells them apart may be missing. Equal entries are not always repeated. Where two headings read alike, the source gives them in different places.

ACE2-hFc (human), sequence (Q9BYF1 18-740 limits assumed): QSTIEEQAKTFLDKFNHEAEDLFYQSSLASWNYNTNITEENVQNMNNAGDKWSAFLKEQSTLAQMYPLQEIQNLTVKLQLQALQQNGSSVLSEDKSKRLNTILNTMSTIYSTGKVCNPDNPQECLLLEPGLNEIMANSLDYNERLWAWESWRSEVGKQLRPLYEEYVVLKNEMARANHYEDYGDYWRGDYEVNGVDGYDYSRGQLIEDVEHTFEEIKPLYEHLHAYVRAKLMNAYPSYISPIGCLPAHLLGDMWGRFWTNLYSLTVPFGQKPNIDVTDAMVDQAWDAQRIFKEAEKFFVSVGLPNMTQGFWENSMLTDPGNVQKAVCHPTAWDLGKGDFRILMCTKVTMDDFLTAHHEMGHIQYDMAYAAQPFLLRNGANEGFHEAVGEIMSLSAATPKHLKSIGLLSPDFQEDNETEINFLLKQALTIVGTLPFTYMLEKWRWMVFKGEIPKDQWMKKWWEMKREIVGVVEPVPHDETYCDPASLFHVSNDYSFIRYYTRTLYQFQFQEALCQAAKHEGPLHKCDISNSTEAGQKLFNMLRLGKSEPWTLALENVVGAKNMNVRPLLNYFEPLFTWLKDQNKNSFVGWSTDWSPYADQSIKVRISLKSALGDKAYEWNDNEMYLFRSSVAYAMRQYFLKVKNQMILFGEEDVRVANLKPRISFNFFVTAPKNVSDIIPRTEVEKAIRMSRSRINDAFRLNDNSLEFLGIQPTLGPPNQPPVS

Broadly, the kon is the second-order rate constant of association. A high value points to fast association. Turning to MsDPS2-SpyTag-mRBD-SpyCatcher conjugate, the on-rate constant (kon) was 4.2e+06 M⁻¹ s⁻¹ in assay [1] and above 1e+06 M⁻¹ s⁻¹ in assay [2].

Consider “MsDPS2-SpyTag-mRBD-SpyCatcher conjugate (other; other documents disagree on this pair)”, for which the association rate constant (kon) with ACE2-hFc (human) [3] was above 1e+06 M⁻¹ s⁻¹; with ACE2-hFc (human) [4] it was 2.3e+06 M⁻¹ s⁻¹.

Usually Kd stands for the constant that tells how readily two partners part at equilibrium. Consider “mInCV01R (SARS CoV-2 RBD) having EIS at the N-terminal (from UniProt P0DTC2 331-532) (ligand)”, for which, in assay [5], the dissociation constant Kd came to 1.3 nM.

In [1], “mInCV21R (SARS CoV-2 hCMP-RBD) having EIS at the N-terminal (ligand)” came in with a kon of 310000 M⁻¹ s⁻¹. The equilibrium dissociation constant (Kd) in assay [6] was below 1 nM.

A word on the koff: it is the first-order rate constant of dissociation. Low values mean a long-lived complex, high ones a short-lived complex. Regarding “mInCV21R (SARS CoV-2 hCMP-RBD) having EIS at the N-terminal (ligand; other documents disagree on this pair)”, in the assay with ACE2-hFc (human) [4], the kon turned out to be 200000 M⁻¹ s⁻¹. Further, the Kd with ACE2-hFc (human) [7] is below 1 nM. In the assay with ACE2-hFc (human) [8], the Kd was found to be 0.21 nM, the off-rate constant (koff) is 8.2e-05 s⁻¹ and the kon stood at 400000 M⁻¹ s⁻¹.

As for “mInCV26R (SARS CoV-2 RBD with hCMP at the C-terminal and EIS at the N-terminal) (ligand)”, the on-rate (kon) in [1] is 480000 M⁻¹ s⁻¹.

Regarding “mInCV26R (SARS CoV-2 RBD with hCMP at the C-terminal and EIS at the N-terminal) (ligand; other documents disagree on this pair)”, the association rate constant (kon) with ACE2-hFc (human) [4] is 360000 M⁻¹ s⁻¹.

Turning to “mInCV29R (SARS CoV-2 RBD with GlyIZ at C-terminal and EIS at the N-terminal) (ligand)”, in assay [1], the dissociation constant Kd was determined as 4.8 nM, the koff was found to be 0.00097 s⁻¹ and the kon was 200000 M⁻¹ s⁻¹. In addition, in assay [9], the dissociation constant (Kd) is 3 nM and 5 nM.

For the substance “mInCV29R (SARS CoV-2 RBD with GlyIZ at C-terminal and EIS at the N-terminal) (ligand; other documents disagree on this pair)”, in the assay with ACE2-hFc (human) [4], the dissociation constant (Kd) is 3 nM, the off-rate (koff) came to 0.0004 s⁻¹ and the on-rate constant (kon) was found to be 130000 M⁻¹ s⁻¹.

On to “pInCV02R (SARS CoV-2 RBD N-1 (332-532)) (from UniProt P0DTC2 332-532) (ligand)”, for which the Kd in assay [10] turned out to be 29.5 nM; in [11], 30 nM.
